Results taken from patent US8026218 (UNIVERSITY OF ARIZONA, dated 2011).
Where two headings read alike, the source gives them in different places. Square brackets hold non-standard residues; d marks the D form. Primed or numbered codes have the meaning given here. Ends that are not written are not given here. * marks the point of attachment. O‑Bzl(CF3)2 = C-terminal bis(trifluoromethyl)benzyl ester; NH(3,5-(CF3)2-benzyl) = FC(F)(F)c1cc(CN*)cc(C(F)(F)F)c1; OBzl(3,5-(CF3)2) = FC(F)(F)c1cc(CO*)cc(C(F)(F)F)c1; Glc″ = glucosyl on the serine side-chain oxygen; Dmt = Cc1cc(O)cc(C)c1C[C@H](N)C(=O)O; Nle = CCCC[C@H](N)C(=O)O; NHBn = c1ccc(CN*)cc1

Legend:
human δ opioid receptor [1] = target: T1, human δ opioid receptor (human, UniProt P41143 1-372); test: competition vs [3H]DPDPE, membranes of hDOR-transfected HN9.10 cells
T1 construct: whole, on cells; Assayed as membrane preparations of transfected cells; also called hDOR; DOR
T1 sequence (P41143 whole entry, stated change not applied): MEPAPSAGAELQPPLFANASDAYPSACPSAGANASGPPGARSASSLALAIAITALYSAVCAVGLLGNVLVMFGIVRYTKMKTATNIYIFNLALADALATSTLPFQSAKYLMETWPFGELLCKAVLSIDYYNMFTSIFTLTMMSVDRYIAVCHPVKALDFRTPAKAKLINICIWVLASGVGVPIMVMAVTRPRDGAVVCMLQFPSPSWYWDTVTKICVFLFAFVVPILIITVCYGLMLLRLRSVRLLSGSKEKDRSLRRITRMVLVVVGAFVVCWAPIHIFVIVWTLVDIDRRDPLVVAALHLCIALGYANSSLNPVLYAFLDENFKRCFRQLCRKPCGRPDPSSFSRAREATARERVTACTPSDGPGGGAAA

human δ opioid receptor [2] = target: T1, human δ opioid receptor; test: cell-based or functional assay
rat µ opioid receptor [3] = target: rat µ opioid receptor (rat, UniProt P33535 1-398); test: cell-based or functional assay
Target sequence in this assay (P33535 whole entry): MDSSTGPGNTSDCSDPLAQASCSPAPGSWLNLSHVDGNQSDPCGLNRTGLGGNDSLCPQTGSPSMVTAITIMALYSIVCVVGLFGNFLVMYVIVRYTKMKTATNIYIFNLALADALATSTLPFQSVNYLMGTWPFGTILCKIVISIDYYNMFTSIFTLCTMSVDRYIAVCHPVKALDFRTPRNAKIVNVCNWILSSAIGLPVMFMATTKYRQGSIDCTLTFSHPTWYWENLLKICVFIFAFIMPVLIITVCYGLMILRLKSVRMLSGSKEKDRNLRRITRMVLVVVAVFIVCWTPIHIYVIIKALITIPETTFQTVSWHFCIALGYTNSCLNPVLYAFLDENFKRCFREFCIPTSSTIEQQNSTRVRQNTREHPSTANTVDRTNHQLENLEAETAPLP

rat NK1 receptor [4] = target: T2, rat NK1 receptor (rat, UniProt P14600 1-407); test: competition vs [3H]substance P, membranes of rNK1-transfected CHO cells
T2 construct: whole, on cells; Assayed as membrane preparations of transfected CHO cells; also called rNK1; rNK-1
T2 sequence (P14600 whole entry): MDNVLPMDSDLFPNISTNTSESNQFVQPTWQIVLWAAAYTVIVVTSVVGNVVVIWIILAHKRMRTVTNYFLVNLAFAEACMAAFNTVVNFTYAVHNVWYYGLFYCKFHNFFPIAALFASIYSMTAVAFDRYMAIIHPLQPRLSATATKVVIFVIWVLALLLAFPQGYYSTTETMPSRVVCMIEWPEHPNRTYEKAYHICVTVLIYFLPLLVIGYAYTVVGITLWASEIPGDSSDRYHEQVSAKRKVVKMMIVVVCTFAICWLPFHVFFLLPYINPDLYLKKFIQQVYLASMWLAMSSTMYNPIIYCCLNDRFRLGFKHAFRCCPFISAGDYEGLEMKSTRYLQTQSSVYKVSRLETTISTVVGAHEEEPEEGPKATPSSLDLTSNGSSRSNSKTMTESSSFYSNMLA

human NK1 receptor [5] = target: T3, human NK1 receptor (human, UniProt P25103 1-407); test: competition vs [3H]Substance P, hNK1 CHO cell membranes
T3 construct: whole, on cells; membrane preparations of the transfected cells were used; also called hNK1; human neurokinin-1 receptor

human δ opioid receptor [6] = target: T4, human δ opioid receptor (human, UniProt P41143 1-372); test: competition vs [3H]DPDPE, hDOR cell membranes
T4 construct: whole, on cells; membrane preparations of the transfected cells were used; also called hDOR; DOR
T4 sequence (P41143 whole entry, stated change not applied): as the sequence (P41143 whole entry, stated change not applied) above

[7] = target: T5, µ opioid receptor of the guinea pig isolated ileum (guinea pig, UniProt P97266 1-98); test: cell-based or functional assay
T5 sequence (P97266 whole entry): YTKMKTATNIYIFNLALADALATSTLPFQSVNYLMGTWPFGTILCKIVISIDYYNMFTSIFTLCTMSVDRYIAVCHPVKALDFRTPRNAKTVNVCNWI

guinea pig NK1 receptor [8] = target: T6, guinea pig NK1 receptor (guinea pig, UniProt P30547 1-407); test: cell-based or functional assay
human δ opioid receptor [9] = target: T4, human δ opioid receptor; test: competition vs [3H]DPDPE, hDOR cell membranes; remark: listed apart in the source
[10] = target: T5, µ opioid receptor of the guinea pig …; test: cell-based or functional assay; remark: listed apart in the source
guinea pig NK1 receptor [11] = target: T6, guinea pig NK1 receptor; test: cell-based or functional assay; remark: listed apart in the source
human NK1 receptor [12] = target: T3, human NK1 receptor; test: competition vs [3H]Substance P, hNK1 CHO cell membranes; remark: listed apart in the source
rat NK1 receptor [13] = target: T7, rat NK1 receptor (rat, UniProt P14600 1-407); test: competition vs [3H]Substance P, rNK1 CHO cell membranes
T7 construct: whole, on cells; membrane preparations of the transfected cells were used; also called rNK1; rNK-1
T7 sequence (P14600 whole entry): as the sequence (P14600 whole entry) above

rat µ opioid receptor [14] = target: T8, rat µ opioid receptor (rat, UniProt P33535 1-398); test: competition vs [3H]DAMGO, rMOR cell membranes
T8 construct: whole, on cells; membrane preparations of the transfected cells were used; also called rMOR; MOR
T8 sequence (P33535 whole entry): as the sequence (P33535 whole entry) above

rat µ opioid receptor [15] = target: T8, rat µ opioid receptor; test: cell-based or functional assay; remark: listed apart in the source
[16] = target: T5, µ opioid receptor of the guinea pig …; test: cell-based or functional assay; remark: listed apart in the source
human δ opioid receptor [17] = target: T4, human δ opioid receptor; test: cell-based or functional assay; remark: listed apart in the source
guinea pig NK1 receptor [18] = target: T6, guinea pig NK1 receptor; test: cell-based or functional assay; remark: listed apart in the source
human NK1 receptor [19] = target: T3, human NK1 receptor; test: competition vs [3H]Substance P, hNK1 CHO cell membranes; remark: listed apart in the source
[20] = target: T5, µ opioid receptor of the guinea pig …; test: cell-based or functional assay; remark: listed apart in the source
guinea pig NK1 receptor [21] = target: T6, guinea pig NK1 receptor; test: cell-based or functional assay; remark: listed apart in the source
rat µ opioid receptor [22] = target: T8, rat µ opioid receptor; test: cell-based or functional assay; remark: listed apart in the source
human δ opioid receptor [23] = target: T4, human δ opioid receptor; test: cell-based or functional assay; remark: listed apart in the source
rat NK1 receptor [24] = target: T7, rat NK1 receptor; test: competition vs [3H]Substance P, rNK1 CHO cell membranes; remark: listed apart in the source
human δ opioid receptor [25] = target: T4, human δ opioid receptor; test: competition vs [3H]DPDPE, hDOR cell membranes; remark: listed apart in the source
[26] = target: T9, µ opioid receptor of the guinea pig isolated ileum (guinea pig, UniProt P97266 1-98); test: cell-based or functional assay; remark: listed apart in the source
T9 sequence (P97266 whole entry): as the sequence (P97266 whole entry) above

[27] = target: T9, µ opioid receptor of the guinea pig …; test: cell-based or functional assay; remark: listed apart in the source

T6 sequence (P30547 whole entry): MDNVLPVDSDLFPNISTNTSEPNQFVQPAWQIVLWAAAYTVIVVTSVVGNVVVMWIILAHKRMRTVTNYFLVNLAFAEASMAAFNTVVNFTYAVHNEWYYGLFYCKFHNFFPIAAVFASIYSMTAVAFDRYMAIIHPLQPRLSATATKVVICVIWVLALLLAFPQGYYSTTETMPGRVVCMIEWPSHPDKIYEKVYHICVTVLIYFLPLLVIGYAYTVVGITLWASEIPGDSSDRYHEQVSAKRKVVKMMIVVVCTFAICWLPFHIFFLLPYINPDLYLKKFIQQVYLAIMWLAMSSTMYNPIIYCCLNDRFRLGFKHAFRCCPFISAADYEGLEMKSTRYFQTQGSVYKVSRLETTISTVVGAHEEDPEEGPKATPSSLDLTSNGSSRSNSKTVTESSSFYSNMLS
T3 sequence (P25103 whole entry): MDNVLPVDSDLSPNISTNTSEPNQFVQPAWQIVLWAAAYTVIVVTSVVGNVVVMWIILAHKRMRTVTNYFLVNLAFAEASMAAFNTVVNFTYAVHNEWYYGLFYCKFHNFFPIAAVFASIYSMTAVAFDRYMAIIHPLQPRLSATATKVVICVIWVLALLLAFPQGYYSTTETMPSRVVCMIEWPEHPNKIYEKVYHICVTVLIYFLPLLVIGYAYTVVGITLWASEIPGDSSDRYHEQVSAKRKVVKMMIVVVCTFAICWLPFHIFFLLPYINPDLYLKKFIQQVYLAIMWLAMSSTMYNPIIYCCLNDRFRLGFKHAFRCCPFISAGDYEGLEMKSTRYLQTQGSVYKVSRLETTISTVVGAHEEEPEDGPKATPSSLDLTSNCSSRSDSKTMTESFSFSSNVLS

## H-Y[dA]GFMPLW-NHBn (also: TFA salt, TFA salt; also called TY025) [H-Tyr-D-Ala-Gly-Phe-Met-Pro-Leu-Trp-NH-Bzl]
Human δ opioid receptor [1]
  Ki: 0.44 nM
  LogIC50: -9.1
Human δ opioid receptor [2]
  [35S]GTPγS binding EC50: 2.6 nM
  [35S]GTPγS binding LogEC50: -8.6
Rat µ opioid receptor [3]
  [35S]GTPγS binding Emax: 47%
Rat NK1 receptor [4]
  Ki: 700 nM
  LogIC50: -5.6

B1: DmtDAlaGlyPheNleProLeuTrpNHBn-2,4-(OMe)2 (peptide)
peptide: YAGFXPLW
modifications: not fully specified; Dmt at 1 (written Y); D-Ala at 2; Nle at 5 (written X); C-terminal dimethoxybenzyl amide (NHBn-2,4-(OMe)2 in Table 39, NH-3,5-Bn(OMe)2 in Table 31)
notes: also called TY054
Human NK1 receptor [5]
  Ki: 0.95 nM
Human δ opioid receptor [6]
  Ki: 0.15 nM

## Y[dA]GFMPLW-NHBn (also called TY025) [TyrDAlaGlyPheMetProLeuTrpNHBn]
[7]
  GPI/LMMP IC50: 61.1 nM
Guinea pig NK1 receptor [8]
  GPI/LMMP Substance P antagonist Ke: 9.9 nM
Human δ opioid receptor [9]
  Ki: 0.44 nM
[10]
  GPI (µ) IC50: 61 nM
Guinea pig NK1 receptor [11]
  GPI Substance P antagonist Ke: 9.9 nM

## [Dmt][dA]GFMPLW-{OBzl(3,5-(CF3)2)} (also called TY033) [DmtDAlaGlyPheMetProLeuTrpOBn(CF3)2]
Human NK1 receptor [12]
  Ki: 1.2 nM
[7]
  GPI/LMMP IC50: 100 nM
Guinea pig NK1 receptor [8]
  GPI/LMMP Substance P antagonist Ke: 24.5 nM
Rat NK1 receptor [13]
  Ki: 0.96 nM
Human δ opioid receptor [9]
  Ki: 0.22 nM

## Y[dA]GF[Nle]S(Glc″)LW-{NH(3,5-(CF3)2-benzyl)} (also called TY044) [TyrDAlaGlyPheNleSer(OGlu)LeuTrpNHBn(CF3)2]
Rat µ opioid receptor [14]
  Ki: 3370 nM
Rat µ opioid receptor [15]
  GTP binding EC50: 380 nM
  GTP binding Emax: 85%
[16]
  GPI/LMMP IC50: 249 nM
Human δ opioid receptor [17]
  GTP binding Emax: 162%
Guinea pig NK1 receptor [18]
  GPI/LMMP SP antagonist Ke: 18.4 nM
Human NK1 receptor [19]
  Ki: 1.3 nM

## Y[dA]GFMPLW-{OBzl(3,5-(CF3)2)} (also called TY005) [TyrDAlaGlyPheMetProLeuTrpOBn(CF3)2]
[20]
  GPI/LMMP IC50: 359 nM
Guinea pig NK1 receptor [21]
  GPI/LMMP SP antagonist Ke: 24.7 nM
Rat µ opioid receptor [22]
  GTP binding Emax: 45.6%
Human δ opioid receptor [23]
  GTP binding EC50: 2.9 nM
  GTP binding Emax: 47.6%
[7]
  GPI/LMMP IC50: 359 nM
Guinea pig NK1 receptor [8]
  GPI/LMMP Substance P antagonist Ke: 24.7 nM
Rat NK1 receptor [13]
  Ki: 0.2 nM
Rat NK1 receptor [24]
  IC50: 6.4 nM
Human δ opioid receptor [25]
  Ki: 2.8 nM
Human δ opioid receptor [9]
  Ki: 2.8 nM
[10]
  GPI (µ) IC50: 360 nM
Guinea pig NK1 receptor [11]
  GPI Substance P antagonist Ke: 25 nM

## Y[dA]GFW-{OBzl(3,5-(CF3)2)} [Tyr-D-Ala-Gly-Phe-Trp-O-3′,5′(CF3)2-Bzl (NP36)]
[26]
  GPI µ-agonist IC50: 523 nM

## Y[dA]GFPW-{O‑Bzl(CF3)2} [Tyr-DAla-Gly-Phe-Pro-Trp-O-Bzl(CF3)2 (NP39)]
[27]
  GPI/LMMP µ-agonist IC50: 259 nM

## Y[dA]GFMW-{O‑Bzl(CF3)2} [Tyr-DAla-Gly-Phe-Met-Trp-O-Bzl(CF3)2 (NP38)]
[27]
  GPI/LMMP µ-agonist IC50: 393 nM
